The text below walks through data of patent publication CN114958811A.

In the assay the target is RBD-His (近岸生物 货号 DRA42) (SARS-CoV-2) (UniProt P0DTC2).

With “hACE2-Fc融合蛋白 (fusion of the human ACE2 extracellular domain with the Fc fragment of human IgG1) (Fc fusion)”, the 亲和力 stood at 0.54 nM.
